# Experimental data as given in PMC8599795.
# Like-named read-outs stand apart in the source and are kept apart here.
# Key:
# Test in all cases: SPR
# [1] = biological target: T1, DEN3-NS1 (NAD3) (Dengue virus 3 Sri Lanka D3/H/IMTSSA-SRI/2000/1266) (UniProt Q6YMS4)
# T1 sequence: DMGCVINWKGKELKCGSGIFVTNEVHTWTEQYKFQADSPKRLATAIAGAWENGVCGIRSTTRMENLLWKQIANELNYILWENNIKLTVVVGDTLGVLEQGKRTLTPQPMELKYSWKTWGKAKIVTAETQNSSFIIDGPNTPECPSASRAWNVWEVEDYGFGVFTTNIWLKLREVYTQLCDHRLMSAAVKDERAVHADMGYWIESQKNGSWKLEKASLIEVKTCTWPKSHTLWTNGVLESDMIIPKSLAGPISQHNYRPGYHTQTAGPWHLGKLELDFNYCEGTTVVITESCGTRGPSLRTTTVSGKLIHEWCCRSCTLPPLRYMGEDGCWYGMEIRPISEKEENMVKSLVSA
# [2] = biological target: T2, DEN4-NS1 (NAD4) (Dengue virus 4 Dominica/814669/1981) (UniProt P09866)
# T2 sequence: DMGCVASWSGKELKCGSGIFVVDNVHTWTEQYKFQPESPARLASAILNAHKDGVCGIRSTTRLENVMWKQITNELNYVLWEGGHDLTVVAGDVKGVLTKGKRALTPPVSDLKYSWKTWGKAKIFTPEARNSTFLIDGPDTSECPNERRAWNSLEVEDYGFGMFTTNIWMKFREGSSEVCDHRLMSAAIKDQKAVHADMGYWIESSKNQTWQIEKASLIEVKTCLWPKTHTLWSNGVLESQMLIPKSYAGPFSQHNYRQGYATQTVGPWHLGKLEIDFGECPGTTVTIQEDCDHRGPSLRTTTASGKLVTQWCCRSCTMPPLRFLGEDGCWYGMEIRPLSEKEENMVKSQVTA
# [3] = biological target: T3, DEN2-NS1 (NAD2) (Dengue virus 2 Thailand/16681/84) (UniProt P29990); details: N1,N2 = Ds
# T3 sequence: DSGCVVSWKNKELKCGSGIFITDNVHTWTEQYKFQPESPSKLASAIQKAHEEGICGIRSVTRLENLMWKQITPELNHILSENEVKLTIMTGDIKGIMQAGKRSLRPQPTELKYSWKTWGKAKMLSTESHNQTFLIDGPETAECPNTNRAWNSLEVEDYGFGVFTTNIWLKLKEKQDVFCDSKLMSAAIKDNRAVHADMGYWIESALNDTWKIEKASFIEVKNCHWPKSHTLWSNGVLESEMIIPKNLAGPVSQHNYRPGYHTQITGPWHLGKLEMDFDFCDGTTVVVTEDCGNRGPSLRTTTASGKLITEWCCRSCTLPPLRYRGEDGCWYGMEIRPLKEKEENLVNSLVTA
sequence,measurement,setting,value
CCGCTTGTCATCTAACCTGGCCATGTGGTACTGTAACGGCTGACAAGCGGCGCGTAGCG [Cont-D3-2-59h],Kd,[1],190000 pM
CCGCTTGTCATCTANCCTGGCCNTGTGGTACTGTAACGGCTGACAAGCGGCGCGTAGCG [D3-2-59h (AptD3)],Kd,[1]; N = Ds,57 pM
CGGCGGAGACGTAACGCATATCAAATCAAAACAGCTTAGGGTCCGCCGCGCGTAGCG [Cont-D4-3-57h],Kd,[2],2000 pM
CGGCGGAGACGTAACGCNTATCAAATCNAAACAGCTTAGGGTCCGCCGCGCGTAGCG [D4-3-57h (AptD4)],Kd,[2]; N = Ds,30 pM
CTCCGCTGTCAAACGGNTATCACGGCNACACACCTGCGGACAGCGGAGCGCGTAGCG [D4-1-57h],Kd,[2]; N = Ds,29 pM
GACGGTCTACTGGTCCGNCTGGGAACAAGNGGCGGGAGGGANGGGTGTGGGTGCGACAAGCGGAGTAGTTAGACCGTCCGCGTAGCG [D2-1d-87h],Kd,[3]; N3 = diol-Pa,105 pM
GGCTGGTCCGNCTGGGAACAAGNGGCGGGAGGGANGGGTGTGGGTGCGACAAGCGGACCAGCCCGCGTAGCG [D2-1d-72h (AptD2)],Kd,[3]; N3 = diol-Pa,104 pM
TGATATGGTCTACTGAAGTGTTGTCATCTANCCTGGCCNTGTGGTACTGTAACGGCTGACAAGCGGAGTAGTTAGACC [D3-2-78],Kd,[1]; N = Ds,41 pM
TGATATGGTCTACTGGAGGAGACGTAACGCNTATCAAATCNAAACAGCTTAGGGTCCGACAAGCGGAGTAGTTAGACC [D4-3-78],Kd,[2]; N = Ds,34 pM
TGATATGGTCTACTGGTCTCAACGGTTGTCAAACGGNTATCACGGCNACACACCTGCGGACAAGCGGAGTAGTTAGACC [D4-1-78],Kd,[2]; N = Ds,42 pM
TTTTCGCACTCCATGATATGGTCTACTGGTCCGNCTGGGAACAAGNGGCGGGAGGGANGGGTGTGGGTGCGACAAGCGGAGTAGTTAGACCGTCAAA [D2-1d-97],Kd,[3]; N3 = diol-Pa,114 pM
TTTTCGCACTCCATGATATGGTCTACTGGTCCGNCTGGGAACAAGNGGCGGGAGGGANGGGTGTGGGTGCGACAAGCGGAGTAGTTAGACCGTCAAA [D2-1y-96],Kd,[3]; N3 = diol-Px,41 pM
